From patent publication US20210032365A1 (Chugai, published 2021)

Tests used:
human C1s [1] = target: T1, human C1s (human, UniProt P09871 16-688); experiment: SPR; KD pH 5.8 3 uM Ca / KD pH 7.4 1.2 mM Ca
T1 construct: also called hC1s; serum-derived human C1s (CompTech)
T1 sequence: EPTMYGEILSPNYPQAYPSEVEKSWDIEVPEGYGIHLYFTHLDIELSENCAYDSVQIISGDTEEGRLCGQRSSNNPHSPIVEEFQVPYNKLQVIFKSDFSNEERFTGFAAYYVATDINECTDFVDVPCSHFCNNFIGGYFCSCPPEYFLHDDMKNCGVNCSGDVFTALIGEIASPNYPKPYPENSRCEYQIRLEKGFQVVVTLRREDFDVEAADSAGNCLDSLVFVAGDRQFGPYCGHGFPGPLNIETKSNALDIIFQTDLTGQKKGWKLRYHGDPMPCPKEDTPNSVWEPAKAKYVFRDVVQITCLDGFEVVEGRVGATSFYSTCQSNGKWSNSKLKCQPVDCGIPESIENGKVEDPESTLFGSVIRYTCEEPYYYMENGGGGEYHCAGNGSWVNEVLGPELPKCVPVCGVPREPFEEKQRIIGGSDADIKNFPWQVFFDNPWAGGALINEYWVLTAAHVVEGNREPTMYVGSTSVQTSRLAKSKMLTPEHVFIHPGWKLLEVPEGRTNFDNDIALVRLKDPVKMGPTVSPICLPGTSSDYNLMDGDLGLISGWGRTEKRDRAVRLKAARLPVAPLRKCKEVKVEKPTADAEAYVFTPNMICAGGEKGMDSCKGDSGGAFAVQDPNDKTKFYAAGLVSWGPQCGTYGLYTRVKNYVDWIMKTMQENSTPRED
Method: (§1) All variants were transiently expressed and purified by the method described above. The binding affinity of each histidine-substituted variant at pH 7.4 and pH 5.8 was determined at 37 degrees C. using Biacore T200 instrument (GE Healthcare). Recombinant Protein A/G (Pierce) was immobilized onto all flow cells of a CM4 sensor chip using an amine coupling kit (GE Healthcare). Antibodies and analytes were prepared in 7(+) buffer (20 mM ACES, 150 mM NaCl, 1.2 mM CaCl2, 0.05% Tween 20, 0.005% NaN3, pH 7.4), 5(+) buffer (20 mM ACES, 150 mM NaCl, 1.2 mM CaCl2, 0.05% Tween 20, 0.005% NaN3, pH 5.8), or 5(−) buffer (20 mM ACES, 150 mM NaCl, 3 micro M CaCl2, 0.05% Tween 20, 0.005% NaN3, pH 5.8). Each antibody was captured onto the sensor surface by protein A/G. Antibody capture levels were aimed at 200 resonance unit (RU). Serum-derived human C1s (CompTech) or recombinant C1s prepared in EXAMPLE 1 was injected at 50 nM, followed by dissociation. The sensor surface was regenerated in each cycle with 10 mM Glycine-HCl, pH 1.5. […] The ratio of KD 5.8+ to KD 7.4+(“KD 5+/7+”) and that of KD 5.8− to KD 7.4+(“KD 5−/7+”) were calculated. When the KD 5+/7+ or KD 5−/7+ of a variant is larger than that of the parent antibody IPN009VH2-SG4GK/IPN009VK3-SK1, that variant is considered to be “pH”- or “pH and Ca”-dependent, respectively. When binding response in 5(+) buffer and/or in 5(−) buffer of a variant is much lower than that of IPN09VH2/IPN009VK3, that variant is also considered as “pH”- and/or “pH and Ca”-dependent. Therefore, such mutations are effective to generate “pH”- and/or “pH and Ca”-dependent antibody. To further enhance “pH” and/or “pH and Ca” dependency, a combination of histidine mutations was conducted. Antibodies with combinations of histidine mutations were evaluated using Biacore by the method described above.

human C1s [2] = target: T1, human C1s; experiment: SPR, Ab captured; pH 7.4, 1.2 mM Ca
Method in brief: (§2)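 Antibody captured on protein A/G (~200 RU) on Biacore T200 at 37C; serum-derived or recombinant human C1s injected at 50 nM, then dissociation. KD measured at pH 7.4 with 1.2 mM Ca and at pH 5.8 with 1.2 mM or 3 uM Ca; KD ratios pH 5.8/pH 7.4 calculated.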

human C1s [3] = target: T1, human C1s; experiment: SPR, Ab captured; pH 5.8, 1.2 mM Ca
Method in brief: (§3)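 Antibodies captured on protein A/G (~200 RU) and human C1s (serum-derived or recombinant) injected at 50 nM at 37 degrees C on Biacore T200. Buffers 20 mM ACES with 1.2 mM CaCl2 at pH 7.4 or 5.8, or 3 µM CaCl2 at pH 5.8; KD ratios pH 5.8/pH 7.4 calculated.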

human C1s [4] = target: T1, human C1s; experiment: SPR, Ab captured; pH 7.4, 1.2 mM Ca; remark: listed apart in the source
Method in brief: as §3

human C1s [5] = target: T1, human C1s; experiment: SPR, Ab captured; pH 5.8, 3 uM Ca
Method in brief: as §3

human C1s [6] = target: T1, human C1s; experiment: SPR, Ab captured; pH 5.8, 3 uM Ca; remark: listed apart in the source
Method: as §1

human C1s [7] = target: T1, human C1s; experiment: SPR; KD pH 5.8 1.2 mM Ca / KD pH 7.4 1.2 mM Ca
Method in brief: as §3

human C1s [8] = target: T1, human C1s; experiment: SPR, Ab captured; pH 7.4, 1.2 mM Ca; remark: listed apart in the source
Method: as §1

human C1s [9] = target: T1, human C1s; experiment: SPR; KD pH 5.8 3 uM Ca / KD pH 7.4 1.2 mM Ca; remark: listed apart in the source
Method in brief: as §3

human C1s [10] = target: T1, human C1s; experiment: SPR; KD pH 5.8 1.2 mM Ca / KD pH 7.4 1.2 mM Ca; remark: listed apart in the source
Method: as §1

human C1s [11] = target: T1, human C1s; experiment: SPR, Ab captured; pH 5.8, 1.2 mM Ca; remark: listed apart in the source
Method: as §1

human C1s [12] = target: T2, human C1s (human, UniProt P09871 16-688); experiment: SPR (Biacore T200, 37C), Ab captured on protein A/G; pH 5.8, 3 uM Ca
T2 construct: Analyte in the Biacore assays; also called hC1s; serum-derived human C1s (CompTech)
T2 sequence: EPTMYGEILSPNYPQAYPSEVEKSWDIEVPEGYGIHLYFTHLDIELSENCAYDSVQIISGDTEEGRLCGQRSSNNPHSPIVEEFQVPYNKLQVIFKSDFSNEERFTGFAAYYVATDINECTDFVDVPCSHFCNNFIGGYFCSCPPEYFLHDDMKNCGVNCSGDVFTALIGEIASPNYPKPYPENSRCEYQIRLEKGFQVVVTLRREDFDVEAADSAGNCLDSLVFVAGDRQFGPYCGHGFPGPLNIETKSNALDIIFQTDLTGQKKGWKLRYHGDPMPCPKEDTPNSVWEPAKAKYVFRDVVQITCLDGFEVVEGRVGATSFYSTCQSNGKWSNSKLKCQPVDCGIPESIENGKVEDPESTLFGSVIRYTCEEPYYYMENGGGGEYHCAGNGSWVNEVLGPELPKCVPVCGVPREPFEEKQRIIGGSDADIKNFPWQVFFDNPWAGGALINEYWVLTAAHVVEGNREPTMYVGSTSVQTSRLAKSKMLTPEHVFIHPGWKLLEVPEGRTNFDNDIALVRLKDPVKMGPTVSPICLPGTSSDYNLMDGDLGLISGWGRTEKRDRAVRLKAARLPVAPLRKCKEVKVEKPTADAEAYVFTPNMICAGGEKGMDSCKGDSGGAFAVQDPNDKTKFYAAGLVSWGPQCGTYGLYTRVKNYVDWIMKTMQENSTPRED
Method in brief: as §2

human C1s [13] = target: T2, human C1s; experiment: SPR; KD at pH 5.8 (1.2 mM Ca) over KD at pH 7.4 (1.2 mM Ca)
Method: as §1

human C1s [14] = target: T2, human C1s; experiment: SPR (Biacore T200, 37C), Ab captured on protein A/G; pH 5.8, 1.2 mM Ca
Method: as §1

human C1s [15] = target: T2, human C1s; experiment: SPR; KD at pH 5.8 (3 uM Ca) over KD at pH 7.4 (1.2 mM Ca)
Method: as §1

human C1s [16] = target: T2, human C1s; experiment: SPR (Biacore T200, 37C), Ab captured on protein A/G; pH 5.8, 1.2 mM Ca; remark: listed apart in the source
Method in brief: as §2

human C1s [17] = target: T2, human C1s; experiment: SPR (Biacore T200, 37C), Ab captured on protein A/G; pH 5.8, 3 uM Ca; remark: listed apart in the source
Method: as §1

human C1s [18] = target: T2, human C1s; experiment: SPR; KD at pH 5.8 (3 uM Ca) over KD at pH 7.4 (1.2 mM Ca); remark: listed apart in the source
Method in brief: as §2

human C1s [19] = target: T2, human C1s; experiment: SPR; KD at pH 5.8 (1.2 mM Ca) over KD at pH 7.4 (1.2 mM Ca); remark: listed apart in the source
Method in brief: as §2

human C1s [20] = target: T2, human C1s; experiment: SPR (Biacore T200, 37C), Ab captured on protein A/G; pH 7.4, 1.2 mM Ca
Method: as §1

B1: C1_IPN009VH2-SG4GK/IPN009VK3-SK1 (antibody, human IgG4 S228P, kappa)
heavy: not shown
light: QIVLTQSPATLSLSPGERATLSCTASSSVSSSYLHWYQQKPGKAPKLWIYSTSNLASGVPSRFSGSGSGTDYTLTISSLQPEDFATYYCHQYYRLPPITFGQGTKLEIKRTVAAPSVFIFPPSDEQLKSGTASVVCLLNNFYPREAKVQWKVDNALQSGNSQESVTEQDSKDSTYSLSSTLTLSKADYEKHKVYACEVTHQGLSSPVTKSFNRGEC
notes: parent antibody; variable regions as described in WO2016164358; also called IPN009VH2/IPN009VK3; IPN09VH2/IPN09VK3
KD 5(-)/7(+) (human C1s [1]): 4.1 | koff (human C1s [2]): 0.000298 s⁻¹ | kon (human C1s [2]): 362000 M⁻¹ s⁻¹ | koff (human C1s [3]): 0.000108 s⁻¹ | kon (human C1s [3]): 662000 M⁻¹ s⁻¹ | koff (human C1s [4]): 0.000298 s⁻¹ | kon (human C1s [4]): 362000 M⁻¹ s⁻¹ | koff (human C1s [5]): 0.00204 s⁻¹ | kon (human C1s [5]): 606000 M⁻¹ s⁻¹ | koff (human C1s [6]): 0.00204 s⁻¹ | kon (human C1s [6]): 606000 M⁻¹ s⁻¹ | KD 5(+)/7(+) (human C1s [7]): 0.2 | koff (human C1s [8]): 0.000298 s⁻¹ | kon (human C1s [8]): 362000 M⁻¹ s⁻¹ | KD 5(-)/7(+) (human C1s [9]): 4.1 | KD 5(+)/7(+) (human C1s [10]): 0.2 | koff (human C1s [11]): 0.000108 s⁻¹ | kon (human C1s [11]): 662000 M⁻¹ s⁻¹

B2: C1_IPN009VH2-SG4GK/IPN009VK3-SK1 (antibody, human IgG4 S228P, kappa)
heavy: not shown
light: QIVLTQSPATLSLSPGERATLSCTASSSVSSSYLHWYQQKPGKAPKLWIYSTSNLASGVPSRFSGSGSGTDYTLTISSLQPEDFATYYCHQYYRLPPITFGQGTKLEIKRTVAAPSVFIFPPSDEQLKSGTASVVCLLNNFYPREAKVQWKVDNALQSGNSQESVTEQDSKDSTYSLSSTLTLSKADYEKHKVYACEVTHQGLSSPVTKSFNRGEC
notes: Parent antibody; also called IPN009VH2/IPN009VK3; IPN09VH2/IPN09VK3
koff (human C1s [12]): 0.00204 s⁻¹ | kon (human C1s [12]): 606000 M⁻¹ s⁻¹ | KD 5(+)/7(+) (human C1s [13]): 0.2 | koff (human C1s [14]): 0.000108 s⁻¹ | kon (human C1s [14]): 662000 M⁻¹ s⁻¹ | KD 5(-)/7(+) (human C1s [15]): 4.09 | koff (human C1s [16]): 0.000108 s⁻¹ | kon (human C1s [16]): 662000 M⁻¹ s⁻¹ | koff (human C1s [17]): 0.00204 s⁻¹ | kon (human C1s [17]): 605000 M⁻¹ s⁻¹ | KD 5(-)/7(+) (human C1s [18]): 4.09 | KD 5(+)/7(+) (human C1s [19]): 0.2 | koff (human C1s [20]): 0.000298 s⁻¹ | kon (human C1s [20]): 362000 M⁻¹ s⁻¹

B3: C1_IPN92H0307-SG4GK/IPN93L0058-SK1 (antibody, human IgG4 S228P, kappa)
heavy: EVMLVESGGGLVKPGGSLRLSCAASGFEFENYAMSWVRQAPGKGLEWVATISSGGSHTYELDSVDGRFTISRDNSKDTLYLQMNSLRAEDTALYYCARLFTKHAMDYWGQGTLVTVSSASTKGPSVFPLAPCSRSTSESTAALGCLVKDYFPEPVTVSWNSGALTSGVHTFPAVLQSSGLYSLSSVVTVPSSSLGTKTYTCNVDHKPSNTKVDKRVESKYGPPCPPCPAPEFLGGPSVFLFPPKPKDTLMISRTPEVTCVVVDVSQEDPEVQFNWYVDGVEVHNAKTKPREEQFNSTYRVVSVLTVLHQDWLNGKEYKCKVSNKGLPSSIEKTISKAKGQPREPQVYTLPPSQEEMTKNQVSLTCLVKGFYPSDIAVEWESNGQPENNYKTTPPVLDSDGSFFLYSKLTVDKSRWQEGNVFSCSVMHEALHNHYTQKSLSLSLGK
light: QIVLTQSPATLSLSPGERATLSCTASSEVSSSYLHWYQQKPGKAPKLWIYSTSNLASGVPSRFSGSGSGTDYTLTISSLQPEDFATYYCHQYYRLHPITFGQGTKLEIKRTVAAPSVFIFPPSDEQLKSGTASVVCLLNNFYPREAKVQWKVDNALQSGNSQESVTEQDSKDSTYSLSSTLTLSKADYEKHKVYACEVTHQGLSSPVTKSFNRGEC
notes: also called IPN92H0307/IPN93L0058
KD 5(+)/7(+) (human C1s [13]): 10.1 | koff (human C1s [14]): 0.0142 s⁻¹ | kon (human C1s [14]): 731000 M⁻¹ s⁻¹ | KD 5(-)/7(+) (human C1s [15]): 2.56 | koff (human C1s [17]): 0.00196 s⁻¹ | kon (human C1s [17]): 396000 M⁻¹ s⁻¹ | koff (human C1s [20]): 0.000863 s⁻¹ | kon (human C1s [20]): 446000 M⁻¹ s⁻¹

B4: C1_IPN92H0288-SG4GK/IPN93L0058-SK1 (antibody, human IgG4 S228P, kappa)
heavy: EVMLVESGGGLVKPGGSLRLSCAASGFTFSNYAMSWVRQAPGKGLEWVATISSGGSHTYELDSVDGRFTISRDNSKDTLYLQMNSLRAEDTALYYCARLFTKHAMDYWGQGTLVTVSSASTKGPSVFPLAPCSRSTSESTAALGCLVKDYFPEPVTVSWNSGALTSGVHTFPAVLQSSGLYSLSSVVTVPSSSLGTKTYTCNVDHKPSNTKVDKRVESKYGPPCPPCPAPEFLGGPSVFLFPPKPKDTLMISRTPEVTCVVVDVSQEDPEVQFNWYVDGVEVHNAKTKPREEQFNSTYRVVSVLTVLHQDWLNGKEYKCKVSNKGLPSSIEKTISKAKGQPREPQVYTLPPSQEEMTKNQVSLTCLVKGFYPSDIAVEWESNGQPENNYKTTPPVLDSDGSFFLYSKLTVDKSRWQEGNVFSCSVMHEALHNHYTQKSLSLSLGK
light: QIVLTQSPATLSLSPGERATLSCTASSEVSSSYLHWYQQKPGKAPKLWIYSTSNLASGVPSRFSGSGSGTDYTLTISSLQPEDFATYYCHQYYRLHPITFGQGTKLEIKRTVAAPSVFIFPPSDEQLKSGTASVVCLLNNFYPREAKVQWKVDNALQSGNSQESVTEQDSKDSTYSLSSTLTLSKADYEKHKVYACEVTHQGLSSPVTKSFNRGEC
notes: also called IPN92H0288/IPN93L0058
KD 5(+)/7(+) (human C1s [13]): 23.3 | koff (human C1s [14]): 0.0143 s⁻¹ | kon (human C1s [14]): 732000 M⁻¹ s⁻¹ | KD 5(-)/7(+) (human C1s [15]): 9.5 | koff (human C1s [17]): 0.00401 s⁻¹ | kon (human C1s [17]): 504000 M⁻¹ s⁻¹ | koff (human C1s [20]): 0.000548 s⁻¹ | kon (human C1s [20]): 654000 M⁻¹ s⁻¹
